Patent publication US20260242478A1 (published 2026)
Where no end group is shown, it is not given here.

B1: Phage-2771 (peptide)
peptide: QMHWCMPPWMCEGI
modifications: cysteine pairing not given here; also: fused to pIII, displayed on bacteriophage
B2: Phage-2773 (peptide)
peptide: VPKWCTPSWMCASN
modifications: cysteine pairing not given here; also: fused to pIII, displayed on bacteriophage

Experiments:
PSMA Fab [1] = target: T1, PSMA Fab; experiment: clonal phage ELISA on captured PSMA Fab pre-incubated with PSMA antigen as competitor, anti-M13 HRP detection;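 note: crude clonal phage supernatants tested by ELISA, wells first treated with blocking buffer plus PSMA antigen, bound phage read out via HRP-linked anti-M13 antibody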
T1 construct: Biotinylated PSMA Fab captured on neutravidin coated plates in the phage ELISA; also called Anti-PSMA Fab; 006 PSMA Fab
Description: (§1) Clonal phage were harvested as crude supernatants and screened via standard ELISAs. […] Prior to the addition of clonal phage. wells were incubated with blocking buffer and PSMA antigen or blocking buffer alone. Without washing or aspirating, clonal phage supernatants were then added to the wells and incubated for a short time. Wells were then washed followed by detection of bound phage using a horse radish conjugated anti-M13 antibody.

PSMA Fab [2] = target: T1, PSMA Fab; experiment: clonal phage ELISA on biotinylated PSMA Fab captured on neutravidin plates, anti-M13 HRP detection;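 note: crude clonal phage supernatants tested, before phage were added, wells were pretreated with PSMA antigen in blocking buffer or with blocking buffer only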
Description: as §1

PSMA Fab (006 PSMA Fab) [3] = target: T2, PSMA Fab (006 PSMA Fab); experiment: as above
T2 construct: also called Anti-PSMA Fab; anti-PSMA Fab
Description: as §1

PSMA Fab (006 PSMA Fab) [4] = target: T2, PSMA Fab (006 PSMA Fab); experiment: clonal phage ELISA on captured PSMA Fab, wells pre-incubated with PSMA antigen as competitor, anti-M13 HRP detection;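 note: crude clonal phage supernatants added, with no intervening wash, to wells preincubated with PSMA antigen in blocking buffer, incubated briefly, then washed before detecting bound phage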
Description: as §1

Binder	phage binding ELISA signal (Anti-PSMA Fab, PSMA antigen present) (PSMA Fab [1])	Phage binding ELISA signal, Anti-PSMA Fab (PSMA Fab [2])	Phage binding ELISA signal, Anti-PSMA Fab (PSMA Fab (006 PSMA Fab) [3])	Phage binding ELISA signal, Anti-PSMA Fab with PSMA antigen (PSMA Fab (006 PSMA Fab) [4])
DQNWCIPHWMCVGI [Phage-2779]	0.0883	0.625	–	–
DLKWCVPTWMCNWS [Phage-2775]	0.0692	0.639	–	–
GSNWCKPAWMCSVA [Phage-2777]	0.0623	0.634	–	–
EDIWCIPSWMCGVI [Phage-2751]	–	–	0.694	0.0663
VHKMCTPPWMCVTQ [Phage-2783]	0.0908	0.621	–	–
ETSWCRPTWMCEGM [Phage-2752]	–	–	0.693	0.0587
VQAWCVPQWMCNQF [Phage-2772]	0.0631	0.646	–	–
SMKMCTPPWMCEFA [Phage-2774]	0.0631	0.641	–	–
B1	0.0705	0.65	–	–
B2	0.0608	0.643	–	–
VLNWCTPPWMCSGI [Phage-2780]	0.0732	0.624	–	–
DMKLCRPAWMCMHN [Phage-2784]	0.0536	0.621	–	–
DPKWCTPSWMCDWR [Phage-2755]	–	–	0.69	0.0821
APQWCIPPWMCHDQ [Phage-2754]	–	–	0.691	0.0708
ANHWCIPSWMCTEV [Phage-2753]	–	–	0.692	0.162
GWNWCVPQWMCTTS [Phage-2781]	0.121	0.623	–	–
QDKWCTPTWMCEGL [Phage-2778]	0.0777	0.631	–	–
GPKWCTPTWMCEFS [Phage-2776]	0.0754	0.638	–	–
QDKMCRPDWMCMNQ [Phage-2782]	0.0706	0.621	–	–
